From patent US7141434B2, “Methods of identifying compounds that modulate IL-4 receptor-mediated IgE synthesis utilizing an adenosine kinase” (Rigel Pharmaceuticals, Inc., priority 2002, dated 2006)

Tests used:
[1] = biological target: T1, human AK (hAK) (Homo sapiens, UniProt P55263); experiment: β-galactosidase yeast two hybrid (YTH) interaction assay; type: binding; conditions: qualitative
T1 construct: expressed in transfected cells; prey cDNA from the A5T4 reporter cell line (derived from BJAB B-cells)
T1 sequence (P55263 whole entry): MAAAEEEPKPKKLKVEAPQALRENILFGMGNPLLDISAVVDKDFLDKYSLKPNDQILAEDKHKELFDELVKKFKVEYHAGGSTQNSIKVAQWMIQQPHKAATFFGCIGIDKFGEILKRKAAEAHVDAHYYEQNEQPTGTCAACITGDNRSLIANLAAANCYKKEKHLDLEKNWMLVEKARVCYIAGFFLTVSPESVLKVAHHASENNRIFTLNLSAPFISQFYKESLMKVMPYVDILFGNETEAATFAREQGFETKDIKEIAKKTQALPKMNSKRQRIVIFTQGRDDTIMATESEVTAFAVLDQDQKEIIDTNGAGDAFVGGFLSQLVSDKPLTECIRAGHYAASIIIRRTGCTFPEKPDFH
Experimental: Potential binding partners for peptide AR02E8 wt were identified in a β-galactosidase yeast two-hybrid (YTH) assay using peptide AR02E8 wt as bait and a cDNA library constructed from the A5T4 reporter cell line as prey. Binding was assessed by β-galactosidase quantification using BetaFluor (Novagen) as a substrate. A negative interaction control (no cDNA fused downstream of the GAL4 activation domain sequence) was also run. A general outline of the YTH assay is illustrated in FIG. 5A. Following clustering, filtering to remove non-specific bait hits (e.g., GFP and BFP), singletons and clusters recognized by 10 or more cDNA baits (based upon historical YTH assays), and prioritization, 45 prey clones were identified as hits.
Potential targets identified in the YTH assay were reconfirmed as generally outlined in FIG. 6. The cDNA clones identified as hits in the YTH assay were purified and rescreened for interaction with the AR02E8 wt peptide in a YTH assay. The hit clones were also screened in a control assay for interaction with the BFP using a vector (pGBKT7) that contained only the BFP and not the AR02E8 peptide. At this stage, 27 putative target clones remained.
The interaction of AR02E8 wt peptide and its mutants with the clones identified as potential targets for the peptide AR02E8 wt was then quantified in a β-galactosidase YTH assay. The YTH assay was performed in the manner described above. A general outline of this YTH assay is illustrated in FIG. 5B. For each clone tested, an interaction profile was developed by comparing the β-galactosidase activity of each mutant to that of the wild type peptide as described above.
The interaction of these IOF, ROF and LOF mutants with different polypeptides encoded by the putative target clones were quantified using the YTH assay described above. […]

[2] = tested on: IL-4 induced germline ε transcription (ε promoter reporter in A5T4 cells); experiment: Re-infection of naive A5T4 reporter cells with BFP-peptide fusion (GFP reporter ratio); type: cell-based, human; conditions: based on reporter ratio; % change calculated after subtracting 1.0 from the ratios
Experimental: The ability of peptide AR02E8 wt to inhibit germline ε transcription was confirmed in naive cells. Briefly, Phoenix cells were transfected with a retroviral vector encoding a BFP-AR02E8 wt peptide fusion as described in WO 99/58663 and WO 97/27213. Naïve A5T4 cells were infected with the resultant virions and grown for 3 days. The infected cells were stimulated with IL-4 (60 U/mL) and, after 3 days, the cells were assessed by FACS for BFP and GFP. […] The BFP fluorescence data corresponding to the BFP^+ and BFP^− populations are provided in Panel A. The GFP fluorescence data corresponding to the BFP^+ and BFP-populations are presented in Panel B. The reporter ratio for this purpose is determined as the geometric mean of the GFP fluorescence of the BFP^− population divided by the geometric mean of the GFP fluorescence of the BFP^+ population. The reporter ratio for the AR02E8 in this re-infection assay was 2.93. […]
TABLE 2 depicts the amino acid sequences (the dual alanine/glycine mutations are underlined) of the mutants tested and the measured reporter ratios when screening in the A5T4 reporter line.

[3] = tested on: ST486 endogenous α promoter; experiment: TAQMAN assay of endogenous germline α promoter transcription in ST486 cells; type: cell-based; conditions: ST486 cells stimulated with TGF-β 40 ng/ml; average of 3 values; p=0.1120
Experimental: The assay was similar to that described in the immediately preceding section, except that ST486 cells (ATCC # CRL-1647) engineered to express the tetracycline-regulated transactivator were infected and the infected cells were stimulated with TGF-β (40 ng/ml; Peprotech). The primers and probe, which are specific for the transcription product driven by the ST486 endogenous α promoter, were as follows (the probe was labeled at the 5′-end with Fam and at the 3′-end with Tamra): […]

Sequence | binding to human AK in yeast two hybrid interaction assay [1] | functional category as compared to the wild type peptide [2] | endogenous α inhibition ratio [3]
DTMQVQCGVCAGGYVVAFWDVGP (peptide encoded by synthetic oligomer) [AR02E8RS, dual alanine/glycine mutant of AR02E8 wt] | found to bind human AK (hAK) |  | 
DTMQVQCGVCRSGAGVAFWDVGP (peptide encoded by synthetic oligomer) [AR02E8YV, dual alanine/glycine mutant of AR02E8 wt, loss of function] |  | LOF (Cells expressing a loss of function (LOF) mutant have a reporter ratio of <1.11) | 
DTMQVQCGVCRSGYVVAFWDVGP (peptide encoded by synthetic oligomer) [AR02E8 wt, 23-residue peptide from a random retroviral library, expressed as BFP-peptide fusion] | found to bind human AK (hAK) |  | 0.79
DTMQVQCGAGRSGYVVAFWDVGP (peptide encoded by synthetic oligomer) [AR02E8VC, dual alanine/glycine mutant of AR02E8 wt] | found to bind human AK (hAK) |  | 
